Details: Saccharolobus solfataricus (strain ATCC 35092 / DSM 1617 / JCM 11322 / P2), Thermal, DSC, glycine-HCl 10 mM, NaCl 100 mM, reversible: yes, whole UniProt chain shown

B1: DNA-binding protein 7d wild type, P39476 (protein)
chain: MATVKFKYKGEEKEVDISKIKKVWRVGKMISFTYDEGGGKTGRGAVSEKDAPKELLQMLEKQKK
Tm (pH 2.3): 64 °C
heat capacity change of unfolding (pH 2.3): 0.48 kcal/mol/K
unfolding enthalpy (calorimetric) (pH 2.3): 40.6 kcal/mol
Tm (pH 2.5): 65.5 °C
heat capacity change of unfolding (pH 2.5): 0.57 kcal/mol/K
unfolding enthalpy (calorimetric) (pH 2.5): 43 kcal/mol
Tm (pH 2.7): 71.1 °C
heat capacity change of unfolding (pH 2.7): 0.57 kcal/mol/K
unfolding enthalpy (calorimetric) (pH 2.7): 46.6 kcal/mol
Tm (pH 2.8): 74 °C
heat capacity change of unfolding (pH 2.8): 0.45 kcal/mol/K
unfolding enthalpy (calorimetric) (pH 2.8): 49 kcal/mol
Tm (pH 2.9): 76.3 °C
heat capacity change of unfolding (pH 2.9): 0.65 kcal/mol/K
unfolding enthalpy (calorimetric) (pH 2.9): 50.2 kcal/mol
Tm (pH 3): 78.8 °C
heat capacity change of unfolding (pH 3): 0.74 kcal/mol/K
unfolding enthalpy (calorimetric) (pH 3): 51.4 kcal/mol
Tm (pH 3.2): 84.2 °C
heat capacity change of unfolding (pH 3.2): 0.72 kcal/mol/K
unfolding enthalpy (calorimetric) (pH 3.2): 55 kcal/mol
Tm (pH 3.6): 90.3 °C
heat capacity change of unfolding (pH 3.6): 0.6 kcal/mol/K
unfolding enthalpy (calorimetric) (pH 3.6): 58.6 kcal/mol
Tm (pH 3.8): 92.4 °C
heat capacity change of unfolding (pH 3.8): 0.69 kcal/mol/K
unfolding enthalpy (calorimetric) (pH 3.8): 59.8 kcal/mol
Tm (pH 4): 95.1 °C
heat capacity change of unfolding (pH 4): 0.55 kcal/mol/K
unfolding enthalpy (calorimetric) (pH 4): 63.3 kcal/mol

From FireProtDB (doi:10.1021/bi972994k)
